One experiment has as its target HLA-B*08:01. Kind of experiment: IEDB peptide-MHC binding, purified MHC/direct/fluorescence; filed as Kd, often an IC50 or EC50 that approximates it; ≥ and ≤ were set here for values at or beyond the usual limits of such assays.
The target of the next experiment is HLA-A*30:01. Described as above.
The target of another experiment is HLA-B*15:01. Described as above.
The next experiment addresses HLA-B*27:05. The description is as above.
The target of another experiment is HLA-A*31:01. The experiment is described as above.
For another experiment, the target named is HLA-A*01:01. The experiment is described as above.
The target in another experiment is HLA-B*58:01. The description is as above.
A further experiment concerns the target HLA-A*69:01. The experiment is described as above.
In another experiment the target is HLA-B*07:02. The description is as above.
The next experiment addresses HLA-A*03:01. The experiment is described as above.
A further experiment deals with HLA-A*11:01. The description is as above.
Experiment [1] has as its target HLA-A*26:01. The experiment is described as above.
In another experiment the target is HLA-B*40:01. Described as above.
For another experiment, the target named is HLA-A*24:03. Described as above.
Another experiment concerns the target HLA-A*02:01. The experiment is described as above.
The target in experiment [2] is HLA-A*23:01. Description: IEDB peptide-MHC binding, purified MHC/competitive/fluorescence; filed as Kd, often an IC50 or EC50 that approximates it; ≥ and ≤ were set here for values at or beyond the usual limits of such assays. As to conditions: source organism: Bacillus cereus ATCC 14579.
Another experiment addresses HLA-C*05:01. Kind of experiment: IEDB peptide-MHC binding, purified MHC/direct/fluorescence; filed as Kd, often an IC50 or EC50 that approximates it; ≥ and ≤ were set here for values at or beyond the usual limits of such assays. As to conditions: source organism: Giardia intestinalis.
In a further experiment the target is HLA-B*46:01. The description is as above.
A further experiment has as its target HLA-B*44:02. Described as above.
A further experiment addresses HLA-A*24:02. The experiment is described as above.
Experiment [3] addresses HLA-A*23:01. The description is as above.
A further experiment has as its target HLA-B*57:01. The experiment is described as above. As to conditions: source organism: Sudan ebolavirus - Maleo (1979).
A further experiment concerns the target HLA-A*02:12. The experiment is described as above. As to conditions: source organism: Zaire ebolavirus.
The target in another experiment is HLA-A*29:02. The description is as above. As to conditions: source organism: Sudan ebolavirus - Maleo (1979).
Another experiment deals with HLA-A*02:11. The description is as above. As to conditions: source organism: Zaire ebolavirus.
For the next experiment, the target named is HLA-A*68:02. The description is as above. As to conditions: source organism: Zaire ebolavirus.
A further experiment deals with HLA-B*18:01. The experiment is described as above. The note with it: source organism: Sudan ebolavirus - Maleo (1979).
The target in the next experiment is HLA-B*51:01. Description: IEDB peptide-MHC binding, purified MHC/competitive/fluorescence; filed as Kd, often an IC50 or EC50 that approximates it; ≥ and ≤ were set here for values at or beyond the usual limits of such assays. The note with it: source organism: Zaire ebolavirus.
The next experiment has as its target HLA-B*15:17. Described as above. As to conditions: source organism: Zaire ebolavirus.
For a further experiment, the target named is HLA-B*27:03. The description is as above. As to conditions: source organism: Zaire ebolavirus.
In experiment [4] the target is HLA-A*26:01. Described as above. The note with it: source organism: Zaire ebolavirus.
The target of the next experiment is HLA-B*39:01. The experiment is described as above. The note with it: source organism: Zaire ebolavirus.
Where [5] appears, read: source organism: Aggregatibacter actinomycetemcomitans.
[6] abbreviates: source organism: Giardia lamblia ATCC 50803.
Setting [7] is: source organism: Dengue virus 1 Singapore/S275/1990.
Setting [8] is: source organism: Orthohantavirus hantanense.
Where [9] appears, read: source organism: Sudan ebolavirus - Maleo (1979).
The mark [10] stands for this setting: source organism: Zaire ebolavirus.
[11] abbreviates: source organism: Yersinia pestis Antiqua.
Setting [12] is: source organism: Yersinia pestis.
The mark [13] stands for this setting: source organism: Corynebacterium glutamicum.

For RSEVELCIY, the dissociation constant (Kd) with HLA-B*08:01 (setting [5]) was no less than 20 µM; in the experiment with HLA-A*30:01 (setting [5]) it was no less than 10 µM; in the experiment with HLA-B*15:01 (setting [5]), 6.28 µM; with HLA-B*27:05 (setting [5]), no less than 20 µM; with HLA-A*31:01 (setting [5]), no less than 20 µM; with HLA-A*01:01 (setting [5]), 0.111 µM. Also, the Kd was 0.663 µM in the experiment with HLA-B*58:01 (setting [5]); no less than 20 µM with HLA-A*69:01 (setting [5]); no less than 20 µM in the experiment with HLA-B*07:02 (setting [5]); no less than 20 µM with HLA-A*03:01 (setting [5]); no less than 20 µM in the experiment with HLA-A*11:01 (setting [5]); no less than 20 µM in the experiment with HLA-A*26:01 [1] (setting [5]). The Kd with HLA-B*40:01 (setting [5]), with HLA-A*24:03 (setting [5]) and with HLA-A*02:01 (setting [5]) was no less than 20 µM throughout.

For the sequence LYSLWTKRK, in the experiment with HLA-A*23:01 [2], the Kd came to 0.245 µM. This counts as sub-micromolar.

As for WSDLNTTDF, the Kd was no less than 20 µM in the experiment with HLA-B*15:01 (setting [6]); no less than 20 µM in the experiment with HLA-B*27:05 (setting [6]); no more than 0.001 µM with HLA-C*05:01; no less than 20 µM in the experiment with HLA-A*31:01 (setting [6]); 0.156 µM in the experiment with HLA-A*01:01 (setting [6]); no less than 20 µM in the experiment with HLA-B*46:01 (setting [6]). In addition, the Kd in the experiment with HLA-B*58:01 (setting [6]), with HLA-B*07:02 (setting [6]), with HLA-A*03:01 (setting [6]), with HLA-A*11:01 (setting [6]), with HLA-B*40:01 (setting [6]) and in the experiment with HLA-B*44:02 (setting [6]) was no less than 20 µM throughout. In addition, the Kd in the experiment with HLA-A*24:02 (setting [6]) and in the experiment with HLA-A*02:01 (setting [6]) was no less than 20 µM throughout.

For the sequence GFMNEDHWF, the results for the Kd with HLA-A*24:02 (setting [7]) and in the experiment with HLA-A*23:01 [3] (setting [7]) were 0.09 µM and 0.046 µM, respectively.

As to NYYAPRIQF, the Kd was no less than 20 µM with HLA-A*30:01 (source organism: Hantaan virus Q32), 0.0059 µM with HLA-A*23:01 [3] (setting [8]) and 0.0074 µM in the experiment with HLA-A*24:03 (setting [8]).

Turning to MHYKLDEVL, the Kd with HLA-B*08:01 (setting [9]), in the experiment with HLA-B*15:01 (setting [9]), with HLA-B*27:05 (setting [9]), with HLA-B*57:01, with HLA-A*31:01 (setting [9]) and with HLA-A*01:01 (setting [9]) was no less than 20 µM in each case. Also, the Kd with HLA-A*02:12, with HLA-B*46:01 (setting [9]), in the experiment with HLA-A*29:02, with HLA-B*58:01 (setting [9]), with HLA-A*69:01 (setting [9]) and with HLA-B*07:02 (setting [9]) was no less than 20 µM throughout. Also, the Kd with HLA-A*03:01 (setting [9]), with HLA-A*11:01 (setting [9]), with HLA-A*02:11, with HLA-B*40:01 (setting [9]), with HLA-A*68:02 and in the experiment with HLA-B*18:01 was no less than 20 µM in each case. Moreover, the Kd in the experiment with HLA-B*44:02 (setting [9]), with HLA-A*23:01 [3] (setting [10]), with HLA-A*24:03 (setting [10]), in the experiment with HLA-A*02:01 (setting [9]), with HLA-B*51:01 and in the experiment with HLA-B*15:17 was no less than 20 µM in each case. Further, the Kd was no less than 20 µM with HLA-B*27:03, no less than 20 µM with HLA-A*26:01 [4] and 0.0041 µM in the experiment with HLA-B*39:01.

On to RYQRMTGGY, for which the Kd with HLA-B*08:01 (setting [11]) was no less than 20 µM; with HLA-A*30:01 (setting [12]), 2.34 µM; in the experiment with HLA-B*15:01 (setting [12]), 1.35 µM; with HLA-B*27:05 (setting [12]) it was 2.93 µM; with HLA-A*31:01 (setting [12]), 0.388 µM; with HLA-A*01:01 (setting [11]), no less than 20 µM. Besides, the equilibrium dissociation constant (Kd) in the experiment with HLA-B*58:01 (setting [11]), in the experiment with HLA-A*69:01 (setting [11]), with HLA-B*07:02 (setting [11]), in the experiment with HLA-A*03:01 (setting [11]), in the experiment with HLA-A*26:01 [1] (setting [11]) and with HLA-B*40:01 (setting [11]) was no less than 20 µM in each case. For the same sequence, the Kd in the experiment with HLA-A*24:03 (setting [12]) was 0.00621 µM; with HLA-A*02:01 (setting [11]), no less than 20 µM.

For ATQPVHWFL, the Kd with HLA-B*08:01 (setting [13]) is no less than 20 µM; in the experiment with HLA-A*30:01 (setting [13]), 0.0317 µM; in the experiment with HLA-B*15:01 (setting [13]) it was no less than 20 µM; in the experiment with HLA-B*27:05 (setting [13]), no less than 20 µM; with HLA-A*01:01 (setting [13]), 3.13 µM; with HLA-B*58:01 (setting [13]), 0.444 µM. Moreover, the Kd is 6.67 µM in the experiment with HLA-B*07:02 (setting [13]); no less than 20 µM in the experiment with HLA-A*03:01 (setting [13]); 0.021 µM with HLA-A*11:01 (setting [13]); no less than 20 µM with HLA-A*26:01 [1] (setting [13]); no less than 20 µM with HLA-B*40:01 (setting [13]); 0.00444 µM with HLA-A*24:03 (setting [13]). In the experiment with HLA-A*02:01 (setting [13]), this sequence had a Kd of 0.115 µM.
